Measurements reported in EP4628507A1.
Like-named read-outs stand apart in the source and are kept apart here. Values belong to the substance of their own block, whether it stands above or below them.

Experiments:
[1] = target: human 4-1BB on the surface of HEK293-Hu4-1BB cells (human) (UniProt Q07011); assay: cell-based or functional assay
[2] = target: human CD16A-V176 on CHO / CHO-K1 cells (human) (UniProt P08637); assay: flow cytometry on CHO-K1-CD16A V176 cells
[3] = target: human CLDN18.2 on cells (NUGC4-hi18.2 cells; SNU601 cells in the ADCC assay) (human) (UniProt P56856); assay: flow cytometry on NUGC4-hi18.2 cells
[4] = target: human 4-1BB on the surface of HEK293-Hu4-1BB cells (human) (UniProt Q07011); assay: flow cytometry on HEK293-Hu4-1BB cells, isotype control
[5] = target: human CLDN18.2 on cells (NUGC4-hi18.2 cells; SNU601 cells in the ADCC assay) (human) (UniProt P56856); assay: flow cytometry on NUGC4-hi18.2 cells, isotype control
[6] = target: human CLDN18.2 on cells (NUGC4-hi18.2 cells; SNU601 cells in the ADCC assay) (human) (UniProt P56856); assay: cell-based or functional assay
[7] = target: human 4-1BB on the surface of HEK293-Hu4-1BB cells (human) (UniProt Q07011); assay: cell-based or functional assay; remark: listed apart in the source
[8] = target: human 4-1BB on the surface of HEK293-Hu4-1BB cells (human) (UniProt Q07011); assay: flow cytometry on HEK293-Hu4-1BB cells, isotype control; remark: listed apart in the source
[9] = target: human CD16A-V176 on CHO / CHO-K1 cells (human) (UniProt P08637); assay: flow cytometry on CHO-K1-CD16A V176 cells, isotype control
[10] = target: human 4-1BB on the surface of HEK293-Hu4-1BB cells (human) (UniProt Q07011); assay: flow cytometry on HEK293-Hu4-1BB cells, isotype control; remark: listed apart in the source

Sequence of human 4-1BB on the surface of HEK293-Hu4-1BB cells (human) (Q07011 24-255): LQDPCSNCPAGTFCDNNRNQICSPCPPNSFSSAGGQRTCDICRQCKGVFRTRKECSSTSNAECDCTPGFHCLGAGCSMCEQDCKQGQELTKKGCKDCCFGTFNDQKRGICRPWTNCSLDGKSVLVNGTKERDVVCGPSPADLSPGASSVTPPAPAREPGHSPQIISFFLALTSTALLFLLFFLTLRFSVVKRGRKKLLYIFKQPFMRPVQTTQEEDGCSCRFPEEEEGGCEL
Sequence of human CD16A-V176 on CHO / CHO-K1 cells (human) (P08637 17-254 F176V): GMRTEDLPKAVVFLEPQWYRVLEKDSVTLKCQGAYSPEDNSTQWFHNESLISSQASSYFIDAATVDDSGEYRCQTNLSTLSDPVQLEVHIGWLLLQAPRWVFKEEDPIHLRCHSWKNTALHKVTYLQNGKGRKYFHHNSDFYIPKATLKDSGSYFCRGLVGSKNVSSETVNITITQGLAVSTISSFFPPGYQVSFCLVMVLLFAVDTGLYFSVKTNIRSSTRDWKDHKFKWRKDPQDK

Fold change in Emax, 4-1BB/NF-κB luciferase reporter, CLDN18.2 cross-linking [1]: 1.42 fold
Fold change in Emax, 4-1BB/NF-κB luciferase reporter, no cross-linking [1]: 1.13 fold
Substance: ADG106 (antibody)

EC50 [2]: 14.8 nM
Maximal fluorescence value [2]: 3390
Substance: IMAB362 (antibody)

Maximal fluorescence value [2]: 113
EC50 [3]: 16.2 nM
Maximal fluorescence value [3]: 89300
Substance: TJ-CD4B (bispecific antibody)

Fold change in Emax, 4-1BB/NF-κB luciferase reporter, CLDN18.2 cross-linking [1]: 1.15 fold
Fold change in Emax, 4-1BB/NF-κB luciferase reporter, no cross-linking [1]: 1.17 fold
Maximal fluorescence value [4]: 106
Maximal fluorescence value [5]: 107
ADCP maximum phagocytosis rate, macrophages against NUGC4-hi18.2 cells [6]: 19.8%
Emax, 4-1BB/NF-κB luciferase reporter, FcγRIIb cross-linking (relative to the antibody-free group) [7]: 1.12
Emax, 4-1BB/NF-κB luciferase reporter, no FcγRIIb cross-linking (relative to the antibody-free group) [7]: 1.1
Fold change in Emax, 4-1BB/NF-κB luciferase reporter, CLDN18.2 cross-linking [7]: 1.17 fold
Fold change in Emax, 4-1BB/NF-κB luciferase reporter, no CLDN18.2 cross-linking [7]: 1.16 fold
Maximal fluorescence value [8]: 123
Maximal fluorescence value [9]: 1590
Maximal fluorescence value [10]: 67
Substance: isotype IgG1 antibody (control)
ADCC maximum killing rate, NUGC4-hi18.2 target cells, PBMC donor S2001102 (V176) [6]: 21.8%
ADCC maximum killing rate, NUGC4-hi18.2 target cells, PBMC donor SC190061 (F176) [6]: 10.7%
ADCC maximum killing rate, SNU601 target cells, PBMC donor S2001102 (V176) [6]: 22.7%
ADCC maximum killing rate, SNU601 target cells, PBMC donor SC190061 (F176) [6]: 11.4%
